Source: publication PMC7382501 (Nature Communications, 2020)

B1: FasR from Mycobacterium tuberculosis, full-length (hexa-histidine-TEV-tagged construct, tag cleaved) (natural protein)
chain: MSDLAKTAQRRALRSSGSARPDEDVPAPNRRGNRLPRDERRGQLLVVASDVFVDRGYHAAGMDEIADRAGVSKPVLYQHFSSKLELYLAVLHRHVENLVSGVHQALSTTTDNRQRLHVAVQAFFDFIEHDSQGYRLIFENDFVTEPEVAAQVRVATESCIDAVFALISADSGLDPHRARMIAVGLVGMSVDCARYWLDADKPISKSDAVEGTVQFAWGGLSHVPLTRS
B2: His-tagged FasR (FasRwt, from pET28_fasRH) (natural protein)
chain: B1 chain
notes: not shown: His6, N-terminal, kept

Target: the molecule itself
Assay: SEC

| Protein | stoichiometry N |
| --- | --- |
| B1 | 2 |
| B2 | 2 |
